Laboratory results from paper doi:10.1101/2025.11.04.686334 (bioRxiv, 2025).

Target: HA head domain of A/Hong Kong/1/1968 (H3N2) (Influenza A virus A/Hong Kong/1/1968 …, strain)
Test: ELISA
Conditions: both partners purified

B1: FluA-20 mAb (antibody, V domains shown)
VH: QVQLEESGPGLVKPSETLSLTCSVSGVSVTSDIYYWTWIRQPPGKGLEWIGYIFYNGDTNYNPSLKSRVTMSIDTSKNEFSLRLTSVTAADTAVYFCARGTEDLGYCSSGSCPNHWGQGTLVTVSS
VL: DIVMTQSPSSLSASIGDRVTITCRPSQNIRSFLNWFQHKPGKAPKLLIYAASNLQSGVPSRFSGSGSGTEFTLTIRSLQPEDFATYYCQQSYNTPPTFGQGTKVEIK
binding result: binds
